A short description of the series: yeast display, Sf9 membrane polyspecificity reagent, FACS + sequencing; frameworks hold sequencing errors. Summed up:
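Sorting gates, low and high (top ~1%), were placed on anti-HA fluorescence to track expression and on streptavidin fluorescence to track reagent binding. A clone's polyreactivity label is taken from the gate it came out of. The reagent was 10% biotinylated, detergent-solubilized Sf9 membrane, applied for 1 hour at 4 °C to galactose-induced yeast display cells.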
Turning to “QVQLVESWGGLVQAGGSLRLSCAASGLTFNYYAMGWYRQAPGKERELVAAITSSGGSTYYADSVKGRFTISRDNAKNTVYLQMNSLKPEDTAVYYCNADVYAHRYIYGFDYWGQGTQVTVSS”, the “polyreactivity (PSR sort gate)” value is reported as “high polyreactivity”.
For the sequence “QVQLVESWGGLVQAGGSLRLSCAASGRIFHRYAMGWYRQAPGKEREFVAAITYSTGTTYYADSVKGRFTISRDNAKITVYLQMNSLKPEDPAVYYCAKDRRFWHKTWFAYGYDYWGQGTQVTVSS”, the “polyreactivity (PSR sort gate)” value is on record as “low polyreactivity”.
With “QVQLVESWGGLVQAGGSLRLSCAASGRIFRNYVMGWYRQAPGKERELVAAISRSGGSTYYADSVKGRFTISRDNAKNTVYLQMNSLKPEDTAVYYCNADYATRRVSLNYGYWGQGTQVTVSS”, the “polyreactivity (PSR sort gate)” value is recorded as “high polyreactivity”.
Take “QVQLVESWGGLVQAGGSLRLSCAASGRTFAYYAMRWYRQAPGKERELVAAISSGGRTNYADSVKGRFTISRDNAKNTVYLQMNSLKPEDTAVYYCARKASYQIYNGQYGGFGYGYWGQGTQVTVSS”: the “polyreactivity (PSR sort gate)” value is listed as “high polyreactivity”.
As for “QVQLVESWGGLVQAGGSLRLSCAASGRTFIRYTMGWYRQAPGKERELVASIRYSGASTSYADSVKGRFTISRDNAKNTVYLQMNSLKPEDTAVYYCAADRYWWWYNSPYSGMDYWGQGTQVTVSS”, the entry is “high polyreactivity”; as for “QVQLVESWGGLVQAGGSLRLSCAASGRTFYSNAMGWYRQAPGKERELVAAITSTDDSTYYADSVKGRFTISRDNAKNTVYLQMNSLKPEDTAVYYCNTDGLIAIRGLWWVEYDYWGQGTQVTVSS”, “low polyreactivity”.
As for “QVQLVESWGGLVQAGGSLRLSCAASGSTFILYAMGGYRQAPGNERELVAAITSRGVSTYYADSVKGRFTISRDNAKNTVYLQMNSLKPEDTAVYNWAADQYQASYYYWGQGTQVTVSS”, the “polyreactivity (PSR sort gate)” value was “low polyreactivity”.
For the sequence “QVQLVESWGGLVQAGGSLRLSCAASGSTIIGYDMGWYRQAPGKVRELVAAISYSDGTYYADSVKGRFTISRDNAKNTFYLPMNSLKPEDTAVYYCAADSLYYRYDYWGQGTQVTVSW”, the “polyreactivity (PSR sort gate)” value was “low polyreactivity”.
As for “QVQLVESWGGLVQAGGSLRLSCAASGSTISDNAMGWYRQAPGKERELVATIDDDGSTYYADSVKGRFTISRDNAKKTVYLQMNSLKPEDTAVYYCAAEWYGGYPFGYWGQGTQVTVSS”, the entry is “low polyreactivity”; as for “QVQLVESWGGLVQAGGSLRLSCAASGYTFSYYAMGWYRPAPWKERELVAAITSTGSTYYADSVKVRFTISRDNAKNTVYLQMNSLKPEDTAVYYCNVDDATVGPVDYWGQGTQVTVSS”, “low polyreactivity”; as for “QVQLVESWGGLVQAGGSLRLSCAATGVTFKFYAMGWYRQAPGKERELVAAISWSGTSTYYADSVKGRFTISRDNAKNTVYLQMNSLKPEDTAVYYCAADKRLRGHGYDYWGQGTQVTVSS”, “high polyreactivity”.
Regarding “QVQLVESWGGLVQAGGSLRLSCDASGSIFVSNAMGWYRQAPGKERELVAAISRGGVNTNYADSVKGRFTISRDNAKNTVYLQMNSLKQEDTAVYYCAAKWSHVRDGPKYDYCGQGTQVTVSS”, the “polyreactivity (PSR sort gate)” value was “low polyreactivity”.
For “QVQLVESWGGLVQAGGSLRLSCDDSGFTIRVYAMGWYRQAPGKERELVAAISVRGDSTYYADSVKGRFTISRDNAKNTVYLQMNSLKPEDTAVYYCNAVIAPYRRYDYWGQGTQVTVSS” the value was “high polyreactivity”; for “QVQLVESWGGLVQAGGSLRLSSAASGLTFWYYAMGCNRQAPGKESELVAAITSVGSSYYADSVKGRFTISRDNAKQTVYLQMNSLKPEDTAVYYCAAGVPPLYFRRGGDYWGQGTQVTVSS”, “high polyreactivity”.
As for “QVQLVESWGGLVQARGRLRLSFAASGSTYQNAMRCYRQAPGKEREFVAAISWSGGSTYYGDSVKGRFTISRDNAKNTVYLQMNSLKPEDTAVYYCAAYSYFSPWYDYWGQGTQVTVSS”, the entry is “high polyreactivity”; as for “QVQLVESWGGVVQAGGSLRISCAASGFILARYAMGWYRQAPGKERELVAAIRRSGGGTYYADSVKGRFTISRDNAKYTVYLLMKSLKPEDTAVYYCNRDPTYLAYYINYDSWGQGTQVTVSS”, “high polyreactivity”.
On to “QVQLVESWRGLVQEGGSLRLSCAASGRTFYSYAMGWYIQAPGKERELVAAITRRGTSTYYADSVKGRFTISRDNAKNTVYLQMNSLKPEDTAVYYCAARLPGTFSYGYWGQGTQVTVSS”, for which the “polyreactivity (PSR sort gate)” value is on record as “high polyreactivity”.
As to “QVQLVETAGGLVQAGGSLRLSCAASGRIFYGYTLGWYRPAPGKERELVAAISRGGSTYYADSVKGRFTISRDNAKNTVYLQMNSLKPEDPAVYYCAKTYRRRYYPYFHFRYYWGQGTQVTVSS”, the “polyreactivity (PSR sort gate)” value was “high polyreactivity”.
“QVQLVETAGGLVQAGGTLRLSCPASGFTIFDNAMGWSRHPPGQERELVAVITKRGGSTYYADSVKGRFTISRYNAKNTVYLQMNILKPEDTAVYYCAADSRFSNFGVTQVTSDYWGQGTQVTVSS”: the “polyreactivity (PSR sort gate)” value is reported as “low polyreactivity”.
As for “QVQLVETGACLVQAGGSLRLSCAASGLTFFGYTMGRYRQAHGKEREFVADITWSGGSTYYADSVKGRFTISRDNAKNTVYLQMNSLKPEDTAVYYCAVAPPNWDPFVDDTYLMDYWGQGTQVTVSS”, the entry is “low polyreactivity”; as for “QVQLVETGAGLVQAGGRLRLSCDSSGSTFYVYYMGWYRQSPGKERELVAAISSGAGSTYYADSVKGRFTISRDNAKNTVYLQMNSLTRKIPRSSTALLFTVNGGGSRSHDYWAQGTQVTVSS”, “low polyreactivity”.
As for “QVQLVETGGGLFQAGGTLLLSCAASGRIFIRNALVWYRQAPGKEWELVAAIRTRDASTYYADSVKGRFTISRDIAKNTVYLLMNSLKPVDTAVYYCNADTTWPSSSGPTTFGQGDYWGQGTQVTVSS”, the entry is “low polyreactivity”; as for “QVQLVETGGGLVHAGGSLRLSCAASGSTISLYARGWYRQAPVKERELVASITWGGGSTYADSVKGRFTISRDNAKNTVYLQLNRLKPEDTAVYYCARKYRYRVLYDFAYDHWGQGTQVTVSS”, “low polyreactivity”.
Regarding “QVQLVETGGGLVQAAGSLRLSTAASGSTYWCNTMGWYRQAPGKERELVADIRTSGGGTYYADSVKGRFTISRDNAKNTVYLQMNRLKPEDTAVYYCNAVPNWEMGSWGLGTQVTVSS”, the “polyreactivity (PSR sort gate)” value is given as “low polyreactivity”.
As for “QVQLVETGGGLVQAGGILRLSCAASGLTIIYYAMGWYRQSPGKERELVAAISGSVGSTYYADSVQGRFTISRDNAKNTVYLQMNSLKPEDTAVYYCNADRWGFGNVRKYDYWGQGTQVTVSS”, the entry is “low polyreactivity”; as for “QVQLVETGGGLVQAGGSHRLSCAASGFTFWYNAMGWYRPAPGKERELVAAIDWRGSSTYYADSVNGRFTISRDNAKNTVYLQMNSLKPEDTAVYYCAADFGDRYVYWAQGTQVTVSS”, “high polyreactivity”; as for “QVQLVETGGGLVQAGGSLGLSCDASGRIFDYYSMGWYRQATGKERELVASITRGGITYYADSVKGRFTISRDNAKNTVYLQMNSLKPEDTAVYYCADGLRWRRTYGYWGQGTQVTVSS”, “high polyreactivity”.
For “QVQLVETGGGLVQAGGSLLLSCAASGNTFQYYAMGCYRQAPGKERELVAAITTGGSTNYADSVKGRFTISRDNAKNTVYLQMNSLKPEDTAVYYCAARGCVSKRISDYWGQGTQVTVSS”, the “polyreactivity (PSR sort gate)” value was “low polyreactivity”.
As to “QVQLVETGGGLVQAGGSLRLSCAASARTFVPYAMGWYRPAPGKERELVADITDGDVSTYADSVNGRFTISRDKAKNTVYLQMNSLKPDDNAVYYCAAQYRRLVTRWPVTFGYWGQGTQVTVSS”, the “polyreactivity (PSR sort gate)” value is listed as “low polyreactivity”.
For “QVQLVETGGGLVQAGGSLRLSCAASGFIFSAYAMGWYRQAPGKEREFVAAISKRGGSTYYADSVKGRFTISRENAKNTVYLQMNTLKPDDTAVYYCAAPYSRYLVGYGYWGQGTQVTVSS” the value was “high polyreactivity”.

The record behind these values is the nanobody polyreactivity screen of Harvey et al. (2022).
